According to US20210269525A1 (BIOCYTOGEN PHARMACEUTICALS BEIJING, published 2021):
Numbering of substitutions follows the chain as printed.

B1: 10A4-H1K1-IgG1-LALA (antibody, V domains shown)
VH: QVQLVQSGAEVKKPGASVKVSCKASGYTFTSYYIHWVRQAPGQRLEFIGWIYPGNVNAKYNEKFKGRVTITTDKSASTAYMELSSLRSEDTAVYYCAIKGGNYDWGQGTLVTVSS
VL: DVVMTQSPLSLPVTLGQPASISCQSSQSLLDSDGKTYLNWLQQRPGQSPRRLIYLVSKLGSGVPDRFSGSGSGTDFTLKISRVEAEDVGVYYCWQGTHFPRTFGGGTKVEIK
notes: Humanized; human IgG1 with LALA mutations; also called H1K1 (humanized 10A4)
B2: 10A4-H1K2-IgG1-LALA (antibody, V domains shown)
VH: B1 VH
VL: B1 VL with V109L
notes: Humanized; human IgG1 with LALA mutations; also called H1K2 (humanized 10A4)
B3: 10A4-H4K3-IgG1-LALA (antibody, V domains shown)
VH: B1 VH with V5Q, K19R, V20I, A40R, R44G, V68A, I70L, Y95F
VL: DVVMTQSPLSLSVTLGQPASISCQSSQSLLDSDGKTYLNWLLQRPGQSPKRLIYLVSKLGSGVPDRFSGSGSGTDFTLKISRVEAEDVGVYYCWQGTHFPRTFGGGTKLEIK
notes: Humanized; human IgG1 with LALA mutations; also called H4K3 (humanized 10A4)
B4: 10A4-H1K3-IgG1-LALA (antibody, V domains shown)
VH: B1 VH
VL: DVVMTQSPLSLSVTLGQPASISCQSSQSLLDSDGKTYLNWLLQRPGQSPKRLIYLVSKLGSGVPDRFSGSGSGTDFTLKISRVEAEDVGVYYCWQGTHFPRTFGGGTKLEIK
notes: Humanized; human IgG1 with LALA mutations; also called H1K3 (humanized 10A4)
B5: 10A4-H4K2-IgG1-LALA (antibody, V domains shown)
VH: B1 VH with V5Q, K19R, V20I, A40R, R44G, V68A, I70L, Y95F
VL: B1 VL with V109L
notes: Humanized; human IgG1 with LALA mutations; also called H4K2 (humanized 10A4)
B6: 10A4-H2K1-IgG1-LALA (antibody, V domains shown)
VH: B1 VH with V20I, V68A
VL: B1 VL
notes: Humanized; human IgG1 with LALA mutations; also called H2K1 (humanized 10A4)
B7: 10A4-H2K3-IgG1-LALA (antibody, V domains shown)
VH: B1 VH with V20I, V68A
VL: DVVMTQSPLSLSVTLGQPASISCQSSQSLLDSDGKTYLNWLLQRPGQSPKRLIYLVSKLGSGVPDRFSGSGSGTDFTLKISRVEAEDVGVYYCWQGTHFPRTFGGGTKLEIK
notes: Humanized; human IgG1 with LALA mutations; also called H2K3 (humanized 10A4)

Target: T1, human CD3e (T-cell surface glycoprotein CD3 epsilon chain) (human, UniProt P07766 23-207)
T1 construct: Target of the anti-hCD3e antibodies on human PBMC, Jurkat cells and cells expressing human CD3e; on T cells it is part of the CD3/TCR complex; also called hCD3e; CD3e on human PBMC
Assay: flow cytometry, human PBMC, antibody 0.01 ug/mL, anti-human IgG Fc-Alexa Fluor647 (1:500), anti-hTcRβ-PerCP (1:30)
Protocol: (§1) PBMC cells were collected from a human subject. After being thawed, the cells were cultured for 3-4 hours. The medium was then discarded, and the cells were resuspended in phosphate-buffered saline (PBS). The cell concentration was then adjusted to 2×10⁶/25 μl PBS.
(§2) A 96-well plate was prepared. 25 ul of cell suspension was added to each well. […] The cells and the antibodies were incubated. After centrifuge, the residues were discarded. The samples were washed again. 25 ul of PBS was then added to each well to resuspend cells.
(§3) Anti-human IgG Fc-Alexa Fluror647 (1:500) and anit-hTcRβ PerCP (1:30) were then added to each well. The cells and the antibodies were incubated and then the cells were washed again by PBS. 300 ul of PBS was then added to each well to resuspend the cells. FACS was performed.

upper left quadrant, percent of cells AF647+ / hTcRβ-PerCP- [%] | upper right quadrant, percent of cells AF647+ / hTcRβ-PerCP+ [%] | Binder
2.69 | 10.8 | B1
2.53 | 11.6 | B2
2.68 | 12.5 | B3
2.67 | 16.6 | B4
2.25 | 16 | B5
2.67 | 14.8 | B6
2.8 | 14.5 | B7

Target: T2, Cynomolgus CD3 epsilon Protein, His Tag (Acrobiosystems, Cat #CDE-05226) (cynomolgus (Macaca fascicularis), UniProt Q95LI5 22-117)
T2 construct: also called monkey CD3e; not shown: His tag
T2 sequence: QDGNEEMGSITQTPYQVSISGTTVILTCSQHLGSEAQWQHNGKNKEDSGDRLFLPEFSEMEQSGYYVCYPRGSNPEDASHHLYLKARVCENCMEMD
Assay: SPR (Biacore), cynomolgus CD3e His tag
Protocol: The binding affinity of the anti-hCD3e antibodies with monkey CD3e (Cynomolgus CD3 epsilon Protein (SEQ ID NO: 39 AA Gln 22-Asp 117), His Tag, Acrobiosystems, Cat #CDE-05226) were also measured using surface plasmon resonance (SPR) using Biacore (Biacore, INC, Piscataway N.J.) by the methods as described in the examples.

Kd [nM] | koff [s⁻¹] | kon [M⁻¹ s⁻¹] | Binder
13.2 | 0.000597 | 45200 | B1
5.18 | 0.000298 | 57500 | B2
11.8 | 0.000508 | 43100 | B4
4.66 | 0.000261 | 55900 | B6
9.12 | 0.000497 | 54500 | B7

Target: T3, monkey CD3e (Macaca fascicularis) on PBMC (Macaca fascicularis, UniProt Q95LI5 22-198)
T3 construct: Target on PBMC from Macaca fascicularis; also called mfCD3e; monkey PBMC
Assay: flow cytometry, Macaca fascicularis PBMC, antibody concentration not given, anti-human IgG Fc-Alexa Fluor647 (1:500), anti-hTcRβ-PerCP (1:30)
Protocol: A 96-well plate was prepared. 25 ul of cell suspension was added to each well. Anti-hCD3 antibodies were added to the 96-well plate. The cells and the antibodies were incubated for 15 minutes at 4° C. 185 ul PBS was then added to each well. After centrifuge at 2000 rpm for 5 minutes, the medium was discarded. The samples were washed again. 25 ul of PBS was then added to resuspend cells.
Anti-human IgG Fc-Alexa Fluror647 (1:500) and anti-hTcRβ PerCP (1:30) were then added to each well. The cells and the antibodies were incubated for 15 minutes at 4° C. 185 ul PBS was then added to each well. After centrifuge, the residues were discarded. The samples were washed again. 25 ul of PBS was then added to resuspend cells. […] In contrast, anti-hTcRβ PerCP cannot bind to monkey PBMC.

upper left quadrant, percent of cells AF647+ / hTcRβ-PerCP- [%] | upper right quadrant, percent of cells AF647+ / hTcRβ-PerCP+ [%] | Binder
48.4 | 2.33 | B1
47 | 2.56 | B2
82.7 | 0.225 | B3
46 | 1.54 | B4
44.9 | 1.49 | B5
49.4 | 2.32 | B6
51.1 | 2.59 | B7

Target: T1, human CD3e (T-cell surface glycoprotein …)
Assay: cell-based or functional assay

EC50, luciferase of Jurkat-Luc-NFAT cells; antibody from supernatant [µg/mL] | EC50, luciferase of Jurkat-Luc-NFAT cells; purified antibody [µg/mL] | Binder
0.294 | 0.524 | B1
0.272 | 0.726 | B2
0.477 | – | B3
0.393 | 0.583 | B4
0.253 | – | B5
0.266 | 0.313 | B6
0.416 | 0.472 | B7

Target: T4, Histidine-tagged human CD3e protein (human, UniProt P07766 23-126)
T4 construct: also called hCD3e-His; not shown: His tag
Assay: SPR (Biacore), human CD3e

Kd [nM] | koff [s⁻¹] | kon [M⁻¹ s⁻¹] | Binder
1.86 | 0.000105 | 56300 | B1
2.14 | 0.000127 | 59300 | B2
1.05 | 6.33e-05 | 60300 | B3
2.21 | 0.000133 | 60200 | B4
1.6 | 0.000103 | 64100 | B5
1.84 | 0.000111 | 60500 | B6
1.38 | 8.85e-05 | 63900 | B7

Target: T1, human CD3e (T-cell surface glycoprotein …)
Assay: flow cytometry, human PBMC, antibody 0.1 ug/mL, anti-human IgG Fc-Alexa Fluor647 (1:500), anti-hTcRβ-PerCP (1:30)
Protocol: as §1, §2, §3

upper left quadrant, percent of cells AF647+ / hTcRβ-PerCP- [%] | upper right quadrant, percent of cells AF647+ / hTcRβ-PerCP+ [%] | Binder
9.8 | 50.7 | B1
10.8 | 57.8 | B2
11 | 54.4 | B3
10.2 | 56.2 | B4
8.54 | 57.1 | B5
10.3 | 59.4 | B6
7.13 | 45.6 | B7

Target: T1, human CD3e (T-cell surface glycoprotein …)
Assay: flow cytometry, human PBMC, antibody 1 ug/mL, anti-human IgG Fc-Alexa Fluor647 (1:500), anti-hTcRβ-PerCP (1:30)
Protocol: as §1, §2, §3

upper left quadrant, percent of cells AF647+ / hTcRβ-PerCP- [%] | upper right quadrant, percent of cells AF647+ / hTcRβ-PerCP+ [%] | Binder
11.9 | 77.6 | B1
13.5 | 75.8 | B2
11.5 | 76.6 | B3
11 | 79.2 | B4
15 | 74.4 | B5
11.6 | 76.8 | B6
14.9 | 74.2 | B7
